Data published in paper PMC4525147.
Where no end group is shown, it is not given here.

Legend:
[1] = molecular target: gp41, the Xenopus laevis ZP3, of the vitelline envelope (Xenopus laevis)
[2] = molecular target: dicalcin (wild type)

B1: dcp11, dicalcin-derived peptide (peptide)
peptide: SFSCNQKNK
modifications: also: biotin
[1]
  Kd of the concentration dependence of the inhibition of in vitro fertilization: 33 nM
  in vitro fertilization rate after pretreatment of the VE with the peptide at 4 μM, normalised to control: 25 % of control

B2: gpp2, gp41-derived peptide (peptide)
peptide: RYEIINQNGCLVDGKLDDSSSAF
modifications: also: biotin
[2]
  in vitro fertilization rate after preincubation of the VE with gpp2 (concentration series, highest at 4 μM), normalised to control: 132 % of control

B3: dcp15, dicalcin-derived peptide (peptide)
peptide: AALCKL
modifications: also: biotin
[1]
  Kd of the concentration dependence of the inhibition of in vitro fertilization: 46 nM
  in vitro fertilization rate after pretreatment of the VE with the peptide at 4 μM, normalised to control: 32 % of control
